From publication PMC5814911 (Nucleic Acids Research, 2017) come the findings set out here.

Broadly, the Kd is the free concentration of one partner at which half of the binding sites on the other are occupied at equilibrium, for simple one-to-one binding. By stoichiometry N is commonly meant a count of units in the complex or per binding partner.

The target of series [1] is T1, PobR (Streptomyces coelicolor, UniProt Q9Z4X2).
T1 sequence (Q9Z4X2 1-524): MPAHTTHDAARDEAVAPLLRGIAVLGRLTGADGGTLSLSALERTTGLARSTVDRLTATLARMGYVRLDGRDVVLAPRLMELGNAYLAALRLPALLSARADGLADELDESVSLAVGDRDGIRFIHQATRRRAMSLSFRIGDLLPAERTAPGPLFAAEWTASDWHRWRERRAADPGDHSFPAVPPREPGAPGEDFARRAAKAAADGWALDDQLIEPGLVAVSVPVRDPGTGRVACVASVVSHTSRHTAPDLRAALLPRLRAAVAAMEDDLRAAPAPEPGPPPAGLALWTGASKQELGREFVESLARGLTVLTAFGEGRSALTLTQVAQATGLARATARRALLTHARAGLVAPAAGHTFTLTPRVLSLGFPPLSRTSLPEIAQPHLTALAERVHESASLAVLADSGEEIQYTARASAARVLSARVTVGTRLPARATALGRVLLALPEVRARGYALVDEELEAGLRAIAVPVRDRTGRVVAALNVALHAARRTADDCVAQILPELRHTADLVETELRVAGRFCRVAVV
Briefly: ITC and crystal structure at […] Å. In kind it is binding.

Series [2] addresses T2, PobR (PobRFL) (Streptomyces coelicolor (cosmid StE8; M600 is the wild-type strain used)) (UniProt Q9Z4X2).
T2 sequence: T1 sequence (Q9Z4X2 1-524)
Description: DNase I footprinting.

In series [3] the target is T2, PobR (PobRFL) (Streptomyces coelicolor (cosmid StE8; M600 is the wild-type strain used)). Description: EMSA. In general terms: A gel shift assay detects complexes by their altered migration in electrophoresis.
Series [4] addresses PobR (product of SCO3209), full length, Streptomyces coelicolor (Streptomyces coelicolor). Briefly: SEC.
Series [5] shares this target. Briefly: SAXS.

In the case of `O=C(O)c1ccc(O)cc1` [PHB, para-hydroxybenzoate], binding in series [1] was put at a Kd of 5.8 ± 0.5 µM. As to “GCATCGGTCGTTCCCTTCGATCGGCGTCGTTGCCTTGCTCGAGCCGGCAGTTGTTCGCGTCGCGTTGTCGCGTTGTCGCCTGTTCGCGTGGTGAAAATTTCTTCACCATCAACTGCGC (double strand) [118-bp pobA promoter probe, 5'-32P]”, in series [2], the binding result is on record as “binds”. For the molecule “GCATCGGTCGTTCCCTTCGATCGGCGTCGTTGCCTTGCTCGAGCCGGCAGTTGTTCGCGTCGCGTTGTCGCGTTGTCGCCTGTTCGCGTGGTGAAAATTTCTTCACCATCAACTGCGC (double strand) [118-bp pobA promoter probe]”, the binding entry in series [3] is reported as “binds”. As to “PobR (product of SCO3209), full length, Streptomyces coelicolor (natural protein)”, the stoichiometry N in series [4] and in series [5] was 2 each time.
